According to US6395523 (NEW ENGLAND BIOLABS, dated 2002):

Biological target: the molecule itself
Experiment: gel filtration in the presence of DNA and Mg++ (self-association)

B1: nicking endonuclease N.BstNBI (enzyme)
chain: MAKKVNWYVSCSPRSPEKIQPELKVLANFEGSYWKGVKGYKAQEAFAKELAALPQFLGTTYKKEAAFSTRDRVAPMKTYGFVFVDEEGYLRITEAGKMLANNRRPKDVFLKQLVKWQYPSFQHKGKEYPEEEWSINPLVFVLSLLKKVGGLSKLDIAMFCLTATNNNQVDEIAEEIMQFRNEREKIKGQNKKLEFTENYFFKRFEKIYGNVGKIREGKSDSSHKSKIETKMRNARDVADATTRYFRYTGLFVARGNQLVLNPEKSDLIDEIISSSKVVKNYTRVEEFHEYYGNPSLPQFSFETKEQLLDLAHRIRDENTRLAEQLVEHFPNVKVEIQVLEDIYNSLNKKVDVETLKDVIYHAKELQLELKKKKLQADFNDPRQLEEVIDLLEVYHEKKNVIEEKIKARFIANKNTVFEWLTWNGFIILGNALEYKNNFVIDEELQPVTHAAGNQPDMEIIYEDFIVLGEVTTSKGATQFKMESEPVTRHYLNKKKELEKQGVEKELYCLFIAPEINKNTFEEFMKYNIVQNTRIIPLSLKQFNMLLMVQKKLIEKGRRLSSYDIKNLMVSLYRTTIECERKYTQIKAGLEETLNNWVVDKEVRF
notes: Tested for self-association by gel filtration under the same condition as MlyI; No dimers were observed
B1: no binding.
